Laboratory results: patent US20040170601A1, “Method of improving the growth performance of an animal” (priority 2001, published 2004)
Several values for one entry are separate records, joined by “and”; a condition that tells them apart may be missing. Equal entries are not always repeated. Entries after “also recorded” stand apart in the source; their conditions may differ.

What was measured:
eosinophils [1] = assay: Example 10: porcine IL-3 on cell populations over a longer duration; type: in vivo, pigs; conditions: 100 μg IL-3 twice weekly for 2 weeks, followed to day 57
Procedure: This trial compared the effects of recombinant porcine IL-3 protein on eosinophil numbers in the blood of pigs over 8 weeks.
(§1) The experiment was conducted using medicated feed (Barastoc EziWean 150 then Bunge Grolean) ad libitum in an experimental environment (PC2 containment facilities).
Injections were administered intramuscularly in the hind leg. Pigs were 5 weeks of age at commencement of trial. Blood samples were taken for haematology on days 0 (prior to injection), 1, 2, 3, 4, 7, 8, 10, 11, 15, 22, 29, and 57. Full haematology analysis was performed, using the Abbott Cell-Dyn 3700. Examination of selected smears was done for confirmation.

[2] = Example 8: growth performance of pigs administered IL-3 in a commercial piggery; type: in vivo
Procedure: This trial evaluated the capacity of IL-3 to improve growth performance and immunity of pigs by comparing the growth rate and health of weaner pigs (28 day old weaners is Day 0 of the trial and the weaner period continued for 42 days) through to the finisher stage (Days 93 to 113) and slaughter (133 days after commencing the trial), which were administered with the recombinant porcine cytokine, IL-3, and saline was used as a control, with and without standard weaner medicated water and feed in a commercial piggery environment.
40 pigs per treatment were mixed in groups, with 4 replicates containing standard medicated water and feed and 4 replicates without medicated feed or water.
Overall weights for each group at the start of the experiment were equivalent. All pigs at the start of the trial (Day 0) were 28 day old male weaners.
IL-3 was provided in saline to inject 1 ml/pig.
Weights were measured at start, throughout the experiment and at the end of experiment. The trial continued for 133 days after the commencement ie. final weights were determined and animals slaughtered 133 days after the start of the weaning period. Weaning Days 0-42, Grower period Days 42-93, Finisher period Days 93-133. Treatments were administered during the weaner period only.
Blood and sera samples collected at start (before treatments) and end of the weaner period. Blood and sera were taken prior to injecting samples.
Recombinant porcine IL-3 was expressed in E. coli and purified using a polyHis tag system as described in Example 4. IL-3 was tested for biological activity in a bioassay prior to the start of the experiment.

eosinophils [3] = assay: Example 11: IL-5 and IL-3 on eosinophil production; type: in vivo, pigs; conditions: single cytokine 100 μg IM days 0, 3, 7, 10
Source text: The aim of this example was to determine if the effects of IL-3 and IL-5 act synergistically to increase eosinophil levels and antibody production.
As IL-3 stimulates the proliferation of pre-active B cells prior to the effects of IL-5, it was believed that administration of both IL-3 and IL-5 would have a greater impact on eosinophil production than the administration of either cytokine alone. An experiment was undertaken using pigs raised under clean PC2 conditions with raised floors. There were 5 treatments with 6 pigs per treatment. Pigs were 5-6 weeks of age. The animals were injected intramuscularly on days 0, 3, 7 and 10 of the experiment with either recombinant cytokines or saline. The treatments include IL-5 and IL-3 alone and given either together at the same time at different sites or to the same animal but with IL-3 being administered one week before IL-5. The treatments were as follows:
Group 3—100 μg IL-3+100 μg IL-5 (separate sites)
The pigs were bled 4 times per week for the first 2 weeks and once per week for the following 2 weeks and haematology measured using a CellDyn machine. Sera were collected also each week and tested for antibody levels.

[4] = test system: cell populations in the blood; assay: Example 9: porcine IL-3 on blood cell populations; type: in vivo, pigs
Procedure: This trial examined the effect of administering recombinant porcine IL-3 protein on cell populations in the blood of pigs.
as §1
Injections were administered intramuscularly in the hind leg. Pigs were 9 weeks of age at commencement of trial.
Blood samples were taken for haematology on days 0, 1, 2, 3, 4, 7, 9, 11, 15 and 17. Full haematology analysis was performed, using the Abbott Cell-Dyn 3700 and examination of selected smears were done for confirmation.

[5] = test system: Actinobacillus pleuropneumoniae; assay: Example 12: Actinobacillus pleuropneumoniae (App) challenge: growth, clinical signs, lung pathology; type: in vivo, pigs
Source text: The following experiment was designed to determine whether IL-4 could improve the growth of immunologically challenged pigs compared to saline treated controls and positive controls treated with the non-steroidal anti-inflammatory drug (NSAID) Flunix. It was also devised to determine whether IL-4 could be delivered via plasmids.
Male pigs, with a mean starting weight of 52 kg, were allocated to 5 treatment groups (Table 8). Pigs were housed in group pens, with each pen containing a replicate from each of the treatment groups. Pigs were provided with pelleted feed and water ad libitum.
Recombinant IL-4 and saline were administered as 2 ml doses, given subcutaneously behind the ear. Plasmids were administered in 1 ml doses, given intramuscularly in the hind-leg. Flunix was administered as a 2 ml dose according to the manufacturer's instructions, and delivered intramuscularly in the neck. The timetable of administration is outlined in Table 9 below.
(§2) Due to the intermittent availability of Actinobacillus pleuropneumoniae (App), the App challenge was performed separately on the 2 rooms, resulting in different time schedules for each room, as outlined in Table 9. Prior to each challenge, pigs were treated with recombinant cytokines, flunix or plasmids as described above; the timing of treatments with respect to challenge is described in Table 9. Pigs were anaesthetised and infected intratracheally with 7.5×10^5 […] on day 0.
(§3) Briefly, assays were performed on blood samples using standard techniques, including: white blood cell counts performed using an automated cell counter; differential cell counts performed manually on stained blood smears; lymphocyte subset enumeration via flow cytometry; neutrophil function determined by flow cytometry; lymphocyte proliferation determined using a thymidine incorporation assay in response to mitogens; total IgG and IgA levels were identified using indirect sandwich ELISA; levels of mRNA for pro-inflammatory cytokines was detected by RT-PCR. TNF levels were additionally measured in serum by bioassay using L929 target cells. Pigs were weighed weekly from delivery of plasmids and for 2 weeks after challenge.
IL-4 delivered as a recombinant caused a reduction of 36% in the presence of clinical symptoms compared to pigs treated with saline, while IL-4 delivered in plasmid form produced a reduction of 62% compared to saline-treated controls (45% reduction compared to plasmid-treated controls).
At the conclusion of the trial, pigs were euthanased and the lungs removed for post-mortem examination. Lungs were scored for pleurisy from 0-5 (FIG. 79) and the degree of pleuropneumonia was determined by weighing affected lung and expressed as a percentage of total lung weight (FIG. 80).

IL-6 = assay: Example 12: IL-6 in peripheral blood by RT-PCR after App challenge; type: in vivo, pigs; conditions: day 13 after challenge
Procedure: as §2
(§4) […] Blood was assayed for immunological parameters as previously described.
as §3

TNFα = assay: Example 12: TNFα in serum after App challenge (bioassay, L929 target cells); type: in vivo, pigs; conditions: day 13 after challenge
Procedure: as §2, §4, §3

[6] = test system: Brachyspira (Serpulina) hyodysenteriae; assay: Example 13: swine dysentery challenge, IL-4 prophylactic; type: in vivo, pigs
Source text: The aim of this example was to determine whether IL-4 could improve the health of pigs infected with an enteric inflammatory pathogen causing swine dysentery, Brachyspira (Serpulina) hyodysenteriae. A further aim was to determine whether IL-4 could improve the growth rate of pigs under conditions of challenge with swine dysentery.
Male pigs with a mean starting weight of 6.5 kg, were allocated to treatment groups consisting of eight pigs (Table 10). Pigs were housed in group pens, with each pen containing a replicate from each of the treatment groups. One group of 8 pigs was housed in a separate room and left uninfected to act as untreated controls. Pigs were provided with pelleted feed and water ad libitum.
Prior to swine dysentery challenge, pigs were treated with recombinant IL-4 or saline, as described in Table 10. Cytokines and the antibiotic, Lincocin, were delivered by intramuscular injection at intervals outlined in Table 11. Pigs were infected with Brachyspira hyodysenteriae at day 0, day 1 and day 2, given as an oral bolus of 120ml of spirochaete culture in log phase of growth, containing approximately […] cells.
Faecal swabs and blood samples were taken from each pig at intervals described in Table 11. Faecal swabs were cultured for the presence of spirochaetes. Blood samples were assayed for immunological parameters as described in example 1 above. Pigs were weighed at weekly intervals throughout the experiment, which was terminated by euthanasia on days 19 and 20 after the initial challenge. At post mortem swabs from areas of the hindgut were cultured for the presence of spirochaetes, and the gross pathological condition of the gastro-intestinal tissue noted.

[7] = day 7 prior to challenge to slaughter at days 19 and 20

Which results are given for interleukin 3 [IL-3]?
absolute numbers of eosinophils in peripheral blood (eosinophils [1]): statistically significant increase in eosinophils; average warm carcass weight at slaughter above respective saline control ([2]; medicated): approximately 4 kg/pig; average weights during the trial ([2]; medicated): consistently showed higher average weights than all other groups; final average weight higher than saline medicated control ([2]; medicated): over 3.5 kg; increase in total weight of all pigs compared to saline medicated group ([2]; medicated): approximately 10%; individual weight range ([2]; medicated): more consistent weight range than other groups; rate of gain during the weaner period ([2]; medicated and un-medicated): increased the rate of gain over the medicated and un-medicated saline controls; FCR (food conversion ratio) ([2]; medicated, finisher stage): 2.52; % dressing ([2]; un-medicated): substantially higher % dressing than the respective un-medicated saline control; average warm carcass weight at slaughter above respective saline control ([2]; un-medicated): ~2 kg/pig; eosinophils as a percent of white blood cells (eosinophils [3]): did not significantly increase the percentage of eosinophils; also recorded: minor increases in comparison; absolute eosinophils in blood ([4]; 100 μg IL-3 daily for 5 days): increase in eosinophils; absolute eosinophils in blood ([4]; 500 μg IL-3 single dose on day 0): smaller increases; basophil numbers ([4]; pig, in vivo): increase in basophil numbers; eosinophil index (area under the curves) ([4]; pig, in vivo): although there was a biological trend it was not statistically significant

B1: interleukin 4 (protein, UniProt Q04745 25-133, looked up)
Interleukin-4: HKCDITLQEIIKTLNILTARKNSCMELPVTDVFAAPENTTEKETFCRASTVLRHIYRHHTCMKSLLSGLDRNLSSMANMTCSVHEAKKSTLKDFLERLKTIMKEKYSKC
notes: recombinant IL-4 protein
For B1, which “reduction in the presence of clinical symptoms compared to saline” value ([5]; 30 visits in first week of challenge) is on record?
The value was 36%.

What about the “heavier than saline treated peers at the termination of the experiment” value ([5]; after 2 weeks of challenge) of the same molecule?
The value was 4.8 kg.

And the “improvement in growth vs saline” value ([5]; after 2 weeks of challenge)?
Its value is 73%.

And the “clinical signs of disease” value ([5]; first week of challenge)?
The value was “slightly reduced clinical signs of disease compared to saline-treated controls”.

And the “growth during the (first) week of App challenge” value ([5]; pig, in vivo)?
Its value is “positive growth during the week of challenge”.

And the “growth in the second week of challenge” value ([5]; pig, in vivo)?
Its value is “continued to gain weight”.

What about the “pleurisy at necropsy (score 0-5)” value ([5]; pig, in vivo) of the same molecule?
Its value is “same level of pleurisy as saline-treated controls”.

And the “weight gain over the 2 week period following challenge with App” value ([5]; pig, in vivo)?
The value was “increased weight gain compared to saline-treated controls, although this result was not statistically significant”.

What about the “percentage of lung affected by App lesions” value ([5]; vs saline-treated controls) of the same molecule?
Its value is “greatly reduced”.

And the “production of IL-6” value (IL-6)?
The value was “undetectable levels”.

What about the “TNFα production (serum)” value (TNFα) of the same molecule?
Its value is “reduced levels of TNF production”.

And the “spirochaete shedding in faeces (faecal culture)” value ([6]; after challenge)?
The value was “decreasing levels of spirochaete shedding by day 14 after challenge”.

And the “reduction in the number of spirochaetes compared to saline treated pigs” value (“reduction in the number of spirochaetes” below) ([6]; anterior colon)?
The value was 93%.

What about the “gross pathology associated with dysentery” value ([6]; anterior colon, post mortem) of the same molecule?
Its value is “reduced the signs of pathology associated with dysentery, and the severity of the pathology compared to saline in the anterior colon”.

And the “reduction in the number of spirochaetes” value ([6]; caecum)?
The value was 91%.

What about the “improvement in gain compared to saline or antibiotic treatment” value [6, 7] of the same molecule?
The value was 24%.

What about the “total weight gained over the challenge period” value [6, 7] of the same molecule?
Its value is 8.5 kg.

What about the “improvement in end weight vs saline treated pigs” value ([6]; days 19 and 20) of the same molecule?
The value was 11% and 12%.

And the “mean weight at the end of the trial” value ([6]; days 19 and 20 after infection)?
Its value is 15.1 kg.

And the “reduction in the number of spirochaetes” value ([6]; faecal)?
Its value is 86%.

And the “heavier than pigs treated with Lincocin at the end of the trial” value ([6]; pig, in vivo)?
Its value is 15%.

What about the “number of spirochaetes cultured from the hindgut at post mortem” value ([6]; pig, in vivo) of the same molecule?
The value was “significantly reduced the number of spirochaetes residing in the gut compared to saline controls; also recorded: performed as well as the Lincocin antibiotic treatment in reducing the number of spirochaetes in the caecum and colon”.

And the variability of weight ([6]; pig, in vivo)?
The variability of weight was “reduce variability by increasing the weight gained by smaller pigs”.

And the “incidence of clinical signs in faeces (of 8 pigs)” value ([6]; post mortem)?
Its value is 3 pigs.

What about the “pigs showing bloody and mucoid faeces (of 8 pigs)” value ([6]; post mortem) of the same molecule?
The value was 1 pig.

What about the “reduction in the number of spirochaetes” value ([6]; posterior colon) of the same molecule?
The value was 84%.

What about the “gross pathology associated with dysentery” value ([6]; posterior colon, post mortem) of the same molecule?
Its value is “completely prevented the development of pathology in the posterior colon”.
